This passage reports I125VEGF bound and I125VEGF bound in the presence of SN results from article PMC3839617.

The assay deals with neuropilin 1 (human) (UniProt O14786). Kind of assay: radioligand binding.
UniProt O14786, sequence (O14786 22-923): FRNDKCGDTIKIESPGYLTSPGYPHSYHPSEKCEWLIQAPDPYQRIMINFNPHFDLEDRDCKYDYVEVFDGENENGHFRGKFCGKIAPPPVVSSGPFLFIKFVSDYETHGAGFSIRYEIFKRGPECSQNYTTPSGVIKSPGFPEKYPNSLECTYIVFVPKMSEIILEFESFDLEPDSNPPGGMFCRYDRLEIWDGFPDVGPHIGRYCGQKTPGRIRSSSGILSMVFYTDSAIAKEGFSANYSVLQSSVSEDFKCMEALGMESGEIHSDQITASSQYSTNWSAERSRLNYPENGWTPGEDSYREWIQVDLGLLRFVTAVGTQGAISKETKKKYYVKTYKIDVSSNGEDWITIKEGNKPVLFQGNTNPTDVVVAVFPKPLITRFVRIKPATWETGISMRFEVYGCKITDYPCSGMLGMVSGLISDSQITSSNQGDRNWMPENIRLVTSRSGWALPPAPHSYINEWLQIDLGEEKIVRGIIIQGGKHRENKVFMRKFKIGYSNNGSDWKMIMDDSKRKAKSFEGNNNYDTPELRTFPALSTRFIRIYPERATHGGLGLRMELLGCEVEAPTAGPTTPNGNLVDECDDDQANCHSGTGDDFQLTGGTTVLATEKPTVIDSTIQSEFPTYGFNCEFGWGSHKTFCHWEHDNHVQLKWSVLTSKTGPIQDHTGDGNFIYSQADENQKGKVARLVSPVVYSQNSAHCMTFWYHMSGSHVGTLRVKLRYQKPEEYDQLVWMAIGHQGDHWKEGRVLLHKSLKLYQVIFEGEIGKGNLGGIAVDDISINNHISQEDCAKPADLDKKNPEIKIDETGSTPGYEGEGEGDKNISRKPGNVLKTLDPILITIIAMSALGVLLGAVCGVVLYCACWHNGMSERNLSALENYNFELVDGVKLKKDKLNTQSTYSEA

Take “VEGF labelled by radioactive iodine (from UniProt P15692 1-395) (ligand)”: the I125VEGF bound was found to be 413 fmol/µg and the I125VEGF bound in the presence of SN came out at 504 fmol/µg.
